B1: 8L13 (antibody, V domains shown)
VH: QVQLLESGGGVVQPGRSLRLSCAASGFTFSNYGMHWVRQAPGKGLEWVAVIWNDGSKKYYAESVKGRFTISRDNSKNTVYLQMNSLRAEDTAVYYCARDEGVQMVFAMPDYGMDVWGQGTTVTVSS
VL: SYELTQPPSVSVSPGQTASITCSGDKLGDKFACWYQQRPGQSPILVIYQDSKRPSGIPERFSGSNSGNTATLTIRGTQAMDEADYYCQAWDSSTAHYVFGTGTKVTVL
notes: human IgG
B2: 13H11 (antibody, V domains shown)
VH: QVQLVQSGAEVKKPGASVKVSCKASGYTFTNYYIHWVRQAPGQGLEWMGIIHPSSGGTSYAQKFQGRVTMTRDTSTSTVSMDLSSLRSEDTAVYYCGRAFRILGLSDVFVNDWGQGTVVTVSS
VL: DIQMTQSPSSLSASVGDRVTITCRASQGINNYLAWYQQKPGKVPKLLIYAASTLQSGVPSRFSGSGSGTAFTLTILSLQPEDVATYYCQKYNSAPFTFGPGTKVDIK
B3: 10P3 (antibody, V domains shown)
VH: EVQLVESGGGLVRPGGSLRLSCAASGFTFHNYRMNWVRQAPGKGLEWVANIKQDGSEKSYVDSVRGRFTTSRDNSKNSLYLQINSLRAEDTAVYYCARGEGYTYGVVYSYSAMDVWGQGTTVIVSS
VL: SYELTQPPSVSVSPGQTARITCSGNVLPNQYASWYQQKPGQAPVLVIYKDTERPSGIPGRFSGSSSGTTVTLTISGVQAEDEADYYCQSADSSGADYVFGTGTKVTVL
notes: human IgG
B4: 3G16 (antibody, V domains shown)
VH: QSALTQPASVSGSPGESITISCTGTISDVGAYNSVSWYQQHSGTAPELIIYDVTNRPAGVSSRFSGSKSGNTASLTISWLQSEDEAEYYCSSYTTSDTYVFGSGTQVTVL
V domain: RAQLVQSAAEMKNPGASVKVSCEASGYTFTGYYVHWMRQAPGQGLEWMGWINPMTGATKSPQKFQGRVTMTRDTSTTATHIELTRLRSDDSAVFFCARGGPTSTRITGKRHFDLWGRGTLITVAS
notes: human IgG; also called 3G16-biotin
B5: 10F7 (antibody, V domains shown)
VH: EVQLVESGGGLVQPGRSLRLSCTASGFTFGDYAMSWFRQAPGKGLEWVGFIRSKAYGGTTEYAASVKGRFTISRDDSKSIAYLQMNSLKTEDTAVYYCTRASSLLWLLNPQPNFDYWGQGTLVTVSS
VL: SYVLTQPPSVSVAPGQTARITCGGNNIGSNNVHWYQQKPGQAPVLVVYDDSDRPSGIPERFSGSNSGNTATLTISRVEAGDEADYYCQVWDSSSDHPVFGGGTKLTVL
notes: human IgG; also called 10F7-biotin
B6: 11B12 (antibody, V domains shown)
VH: QMQLVQSGPQVKKPGTSVKVSCKASGFTFTSSAMQWVRQARGQRPEWIGWIVLGSGNTNYAQKFQERVTLTRDMSTATAYMELSSLRSEDTAVYYCAADRGRGGYNVYTYWGQGTLVAVSS
VL: EIVMTQSPGTLSLSPGERATLSCRASQTISNTYVAWYQQKPGQAPRLLIYGASSRATGIPDRFSGSGSGTDFTLTIRRLEPEDFAVYYCQQNGQSPWTFGQGTNVEIK
B7: 4N10 (antibody, V domains shown)
VH: QVQLVQSGAEVKKPGSSVRVSCKASGGTFSSYVIIWVRQAPGQGLEWMGGVIPIFDTVNYAQKFQGRVTITADESTSTAYMELSSLKSEDTAVYYCARGILAYCGGDCYNTPYGMDVWGQGTTVTVSS
VL: DIQMTQSPSILSASVGDRVTITCRASQSISSWLAWYQQKPGKAPKLLIYKASSLEIGVPSRISGSGSGTEFTLTISSLQPDDFATYYCQQYNSSWTFGQGTKVEIK
notes: human IgG; also called 4N10-biotin
B8: 7B13 (antibody, V domains shown)
VH: QVQLVESGGGVVQPGGSLRLSCAASGFSFSNYGMHWVRQAPGKGLEWVALIPSDGNYQYYTDSVKGRFTVSRDNSRNTLYLQMKSLRAEDTARYHCAHLGGGLFDFWGQGTLVTVSS
VL: QSALNQPRSVSGSPGQSVSISCTGSSSDVGGYEFVSWYQHHPGKAPKLIIYDVDKRPSGVPDRFSGSRSGDTASLTISGLQAEDEADYYCYSSADTWVFGGGTKLTVL
notes: human IgG

Experiments:
[1] = target: T1, hCMV UL130 + UL131A (HEK293T co-transfectant) (hCMV, UniProt P16772 1-214); assay: cell-based or functional assay
[2] = target: T1, hCMV UL130 + UL131A (HEK293T …); assay: cell-based or functional assay; remark: listed apart in the source
[3] = target: T2, hCMV gH + gL + UL128 + UL130 + UL131A (5-member complex; HEK293T co-transfectant) (hCMV, UniProt P12824 24-743; P16832 31-278; P16837 1-171; P16772 1-214); assay: cell competition; competitor 10F7-biotin
T2 construct: whole, on cells; in the functional rows it stands for the complex on virions or transduced cells of the strain or isolate named in the readout; also called gH/gL/UL128-131A complex; pentameric complex

[4] = target: T2, hCMV gH + gL + UL128 + UL130 + UL131A …; assay: cell competition; competitor 1F11-biotin
[5] = target: T3, hCMV gH (HEK293T transfectant) (hCMV, UniProt P12824 24-743); assay: cell-based or functional assay
[6] = target: T3, hCMV gH (HEK293T transfectant); assay: cell-based or functional assay; remark: listed apart in the source
[7] = target: T2, hCMV gH + gL + UL128 + UL130 + UL131A …; assay: cell competition; competitor 2F4-biotin
[8] = target: T2, hCMV gH + gL + UL128 + UL130 + UL131A …; assay: cell competition; competitor 6G4-biotin
[9] = target: T2, hCMV gH + gL + UL128 + UL130 + UL131A …; assay: cell competition; competitor 15D8-biotin
[10] = target: T2, hCMV gH + gL + UL128 + UL130 + UL131A …; assay: cell competition; competitor 4I22-biotin
[11] = target: T2, hCMV gH + gL + UL128 + UL130 + UL131A …; assay: cell competition; competitor 2C12-biotin
[12] = target: T2, hCMV gH + gL + UL128 + UL130 + UL131A …; assay: cell competition; competitor 8I21-biotin
[13] = target: T2, hCMV gH + gL + UL128 + UL130 + UL131A …; assay: cell competition; competitor 5A2-biotin
[14] = target: T2, hCMV gH + gL + UL128 + UL130 + UL131A …; assay: cell competition; competitor 4N10-biotin
[15] = target: T4, hCMV UL128 + UL130 + UL131A (HEK293T co-transfectant) (hCMV, UniProt P16837 1-171; P16772 1-214); assay: cell-based or functional assay
[16] = target: T4, hCMV UL128 + UL130 + UL131A (HEK293T …); assay: cell-based or functional assay; remark: listed apart in the source
[17] = target: T2, hCMV gH + gL + UL128 + UL130 + UL131A …; assay: cell competition; competitor 9I6-biotin
[18] = target: T2, hCMV gH + gL + UL128 + UL130 + UL131A …; assay: cell competition; competitor 8C15-biotin
[19] = target: T2, hCMV gH + gL + UL128 + UL130 + UL131A …; assay: cell competition; competitor 8J16-biotin

T4 sequence (P16837 whole entry, chain 1 of 2): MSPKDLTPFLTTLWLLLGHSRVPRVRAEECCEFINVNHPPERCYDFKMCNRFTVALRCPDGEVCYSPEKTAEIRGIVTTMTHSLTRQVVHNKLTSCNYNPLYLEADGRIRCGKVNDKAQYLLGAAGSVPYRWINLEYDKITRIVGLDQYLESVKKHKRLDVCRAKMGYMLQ
T4 sequence (P16772 whole entry, chain 2 of 2): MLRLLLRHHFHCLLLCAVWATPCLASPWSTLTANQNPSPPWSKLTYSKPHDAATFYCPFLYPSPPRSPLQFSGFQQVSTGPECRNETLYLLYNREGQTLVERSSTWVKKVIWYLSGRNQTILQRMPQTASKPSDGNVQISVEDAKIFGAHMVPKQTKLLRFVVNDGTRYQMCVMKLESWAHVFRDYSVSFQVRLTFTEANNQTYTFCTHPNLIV
T1 sequence (P16772 whole entry): as the sequence (P16772 whole entry, chain 2 of 2) above

Binder | 50% neutralization VR1814, ARPE [1] | 50% neutralization VR1814, MRC-9 [1] | 90% neutralization VR1814, ARPE [2] | 90% neutralization VR1814, MRC-9 [2] | Inhibition of binding (%) [3] | Inhibition of binding (%) [4] | 50% neutralization VR1814, ARPE [5] | 50% neutralization VR1814, MRC-9 [5] | 90% neutralization VR1814, ARPE [6] | 90% neutralization VR1814, MRC-9 [6] | Inhibition of binding (%) [7] | Inhibition of binding (%) [8] | Inhibition of binding (%) [9] | Inhibition of binding (%) [10] | Inhibition of binding (%) [11] | Inhibition of binding (%) [12] | also measured
B1 | < 0.01 µg/mL | > 2 µg/mL | 0.001 µg/mL | > 10 µg/mL | 100% | 100% |  |  |  |  |  |  |  |  |  |  | 
B2 |  |  |  |  |  |  | < 0.01 µg/mL | ≤ 2 µg/mL | 0.4 µg/mL | 1.12 µg/mL |  |  |  |  |  |  | 
B3 | < 0.001 µg/mL | > 2 µg/mL | 0.0025 µg/mL | > 10 µg/mL |  | 0% |  |  |  |  | 0% | 0% | 0% | 0% | 0% | 0% | 
B4 |  |  |  |  |  |  | ≤ 2 µg/mL | ≤ 2 µg/mL | 0.3 µg/mL | 1 µg/mL |  | 0% |  |  | 0% | 0% | 
B5 | < 0.01 µg/mL | ≤ 2 µg/mL | 0.002 µg/mL | > 10 µg/mL | 100% | 100% |  |  |  |  | 100% | 0% | 0% | 100% | 0% | 0% | Inhibition of binding (%) [13]: 0%; Inhibition of binding (%) [14]: 0%
B6 |  |  |  |  |  |  | ≤ 2 µg/mL | ≤ 2 µg/mL | 1.2 µg/mL | 3.5 µg/mL |  |  |  |  |  |  | 
B7 | < 0.001 µg/mL | ≤ 2 µg/mL | 0.02 µg/mL | > 10 µg/mL | 0% | 0% |  |  |  |  | 0% | 0% | 0% | 0% | 0% | 90% | Inhibition of binding (%) [13]: 100%; Inhibition of binding (%) [14]: 100%
B8 |  |  |  |  |  |  |  |  |  |  |  | 100% |  |  | 100% | 0% | 50% neutralization VR1814, ARPE [15]: < 0.001 µg/mL; 50% neutralization VR1814, MRC-9 [15]: > 2 µg/mL; 90% neutralization VR1814, ARPE [16]: 0.003 µg/mL; 90% neutralization VR1814, MRC-9 [16]: > 10 µg/mL; Inhibition of binding (%) [17]: 100%; Inhibition of binding (%) [18]: 100%; Inhibition of binding (%) [19]: 100%

From patent publication US20170296650A1 (Novartis, published 2017)
